Reference: patent publication US20220204609A1 (SHANDONG BOAN BIOTECHNOLOGY, published 2022)
Read-outs that look alike come from different tables or passages of the source.

Experiments:
[1] = biological target: T1, Claudin18.2 on cells (human, UniProt P56856-2 1-261); test: cell-based or functional assay
[2] = biological target: T1, Claudin18.2 on cells; test: cell-based or functional assay; remark: listed apart in the source
[3] = biological target: T1, Claudin18.2 on cells; test: cell-based or functional assay; remark: listed apart in the source
[4] = biological target: T1, Claudin18.2 on cells; test: cell-based or functional assay; remark: listed apart in the source
[5] = biological target: T1, Claudin18.2 on cells; test: flow cytometry on NUGC4 cells, antibody at 3 µg/mL
Protocol: (§1) Each candidate antibody was serially diluted with FACS buffer (sterile PBS, 0.2% BSA), and added to the 96-well round-bottom plate at 50 μL/well before an incubation at 4° C. for 1 h. The supernatant was discarded after centrifugation at 2000 rpm for 3 min.

[6] = biological target: T1, Claudin18.2 on cells; test: flow cytometry on NUGC4 cells, antibody at 3 µg/mL; remark: listed apart in the source
Protocol: as §1

[7] = biological target: T1, Claudin18.2 on cells; test: flow cytometry on NUGC4 cells, antibody at 1.5 µg/mL
Protocol: as §1

[8] = biological target: T1, Claudin18.2 on cells; test: as above; remark: listed apart in the source
Protocol: as §1

[9] = biological target: T1, Claudin18.2 on cells; test: flow cytometry on NUGC4 cells, antibody at 0.75 µg/mL
Protocol: as §1

[10] = biological target: T1, Claudin18.2 on cells; test: as above; remark: listed apart in the source
Protocol: as §1

[11] = biological target: T1, Claudin18.2 on cells; test: flow cytometry on 293T-Claudin18.2 cells, antibody at 3 µg/mL
Protocol: as §1

[12] = biological target: T1, Claudin18.2 on cells; test: flow cytometry on 293T-Claudin18.2 cells, antibody at 1.5 µg/mL
Protocol: as §1

[13] = biological target: T1, Claudin18.2 on cells; test: as above; remark: listed apart in the source
Protocol: as §1

[14] = biological target: T1, Claudin18.2 on cells; test: flow cytometry on 293T-Claudin18.2 cells, antibody at 0.75 µg/mL
Protocol: as §1

[15] = biological target: T1, Claudin18.2 on cells; test: as above; remark: listed apart in the source
Protocol: as §1

[16] = biological target: T1, Claudin18.2 on cells; test: flow cytometry on 293T-Claudin18.2 cells, antibody at 0.375 µg/mL
Protocol: as §1

[17] = biological target: T1, Claudin18.2 on cells; test: as above; remark: listed apart in the source
Protocol: as §1

[18] = biological target: T2, Claudin18.1 on cells (human, UniProt P56856 1-261); test: flow cytometry on 293T-Claudin18.1 cells, antibody at 3 µg/mL
T2 construct: whole, on cells
Protocol: as §1

[19] = biological target: T2, Claudin18.1 on cells; test: flow cytometry on 293T-Claudin18.1 cells, antibody at 1.5 µg/mL
Protocol: as §1

[20] = biological target: T2, Claudin18.1 on cells; test: flow cytometry on 293T-Claudin18.1 cells, antibody at 0.75 µg/mL
Protocol: as §1

[21] = biological target: T2, Claudin18.1 on cells; test: flow cytometry on 293T-Claudin18.1 cells, antibody at 0.375 µg/mL
Protocol: as §1

Row | ADCC inhibition rate, %, antibody 0.1 µg/mL, 293T-Claudin18.2 target cells, PBMC effectors, LDH [1] [%] | ADCC inhibition rate, %, antibody 1 µg/mL, 293T-Claudin18.2 target cells, PBMC effectors, LDH [1] [%] | ADCC inhibition rate, %, antibody 10 µg/mL, 293T-Claudin18.2 target cells, PBMC effectors, LDH [1] [%] | ADCC EC50 (µg/mL), NUGC4 target cells, Jurkat reporter effector cells, Bio-Glo [3] [µg/mL] | ADCC EC50 (µg/mL), NUGC4 target cells, Jurkat reporter effector cells, Bio-Glo [4] [µg/mL] | mean fluorescence intensity [5] | mean fluorescence intensity [6] | mean fluorescence intensity [7] | mean fluorescence intensity [8] | mean fluorescence intensity [9] | mean fluorescence intensity [10] | mean fluorescence intensity [11] | mean fluorescence intensity [12] | mean fluorescence intensity [14] | mean fluorescence intensity [16] | mean fluorescence intensity [18] | mean fluorescence intensity [19] | mean fluorescence intensity [20] | mean fluorescence intensity [21] | Binder | further results
1 | 20.8 | 41.4 | 60.6 | 2.15 | 2.56 | 131000 | 117000 | 97100 | 93500 | 69600 | 55400 | 902000 | 849000 | 689000 | 498000 |  |  |  |  | IMAB362 (antibody, human IgG1, kappa, V domains shown) VH: QVQLQQPGAELVRPGASVKLSCKASGYTFTSYWINWVKQRPGQGLEWIGNIYPSDSYTNYNQKFKDKATLTVDKSSSTAYMQLSSPTSEDSAVYYCTRSWRGNSFDYWGQGTTLTVSS VL: DIVMTQSPSSLTVTAGEKVTMSCKSSQSLLNSGNQKNYLTWYQQKPGQPPKLLIYWASTRESGVPDRFTGSGSGTDFTLTISSVQAEDLAVYYCQNDYSYPFTFGSGTKLEIKR | ADCC inhibition rate, %, antibody 0.5 µg/mL, 293T-Claudin18.2 target cells, PBMC effectors, LDH [2]: 18%; ADCC inhibition rate, %, antibody 5 µg/mL, 293T-Claudin18.2 target cells, PBMC effectors, LDH [2]: 45%; ADCC inhibition rate, %, antibody 50 µg/mL, 293T-Claudin18.2 target cells, PBMC effectors, LDH [2]: 49%; mean fluorescence intensity [13]: 878000; mean fluorescence intensity [15]: 650000; mean fluorescence intensity [17]: 407000
2 | 15.6 | 27.2 | 58.5 | 17.3 |  | 32400 |  | 13200 |  | 11100 |  | 1.09e+06 | 855000 | 583000 | 308000 | 11000 | 37900 | 18100 | 21500 | CLDQ1-CA841-IgG1 (antibody, V domains shown, Complete IgG1 made in HEK293 cells) VH: QVQLVQSGAEVKKPGSSVKVSCKASGGTFSSYAISWVRQAPGQGLEWMGRIIPILGIANYAQKFQGRVTVTADKSTSTAYMELSSLRSEDTAVYYCARERDNWDPYYYYYGMDVWGQGTTVTVSS VL: DIQMTQSPSTLSASVGDRVTITCRASQSINSWLAWYQQKPGKAPKLLIYKASSLESGVPSRFSGSGSGTEFTLTISSLQPDDFATYYCQQYNSFPLTFGGGTKVEIKR | 
3 | 25.6 | 61.4 | 61.2 |  | 15.7 | 113000 |  | 58100 |  | 24400 |  | 1.23e+06 | 1.05e+06 | 774000 | 495000 | 194000 | 163000 | 141000 | 96700 | CLD389-CA802-IgG1 (antibody, V domains shown, Complete IgG1 made in HEK293 cells) VH: QVQLVESGGGVVQPGRSLRLSCAASGFTFSSYAMHWVRQVPGKGLEWVAIISYDGSIKYYADSVKGQFTISRDNSKNTLSLQMNSLRPEDTAVYYCARDPTMVRGVRGMDVWGQGTTVTVSS VL: DIQMTQSPSSLSASVGDRVTITCRASQGIRNDLGWYQQKPGKAPKLLIYAASSLQSGVPSRFSGSGSGTDFTLTISSLQPEDFATYYCLQDYNYPLTFGGGTKLEIKR | 
4 | -0.212 | 12.3 | 39.9 |  |  |  | 18400 |  | 12000 |  | 9230 | 742000 | 578000 | 365000 | 196000 |  |  |  |  | CLD389-CA852-IgG1 (antibody, V domains shown, Complete IgG1 made in HEK293 cells) VH: QVQLVESGGGVVQPGRSLRLSCAASGFTFSSYAMHWVRQAPGKGLEWVAVISYDGSKKYYADSVKGRFTISRDNSKNTLYLQMNSLRAEDTAVYYCARDPTMVRGVRGMDVWGQGTTVTVSS VL: EIVMTQSPSTLSASIGDRVTITCRASQGIRNDLGWYQQKPGKAPKLLIYAASSLQSGVPSRFSGSGSGTDFTLTISSLQPEDFATYYCLQDYNYPLTFGGGTKVEIKR | 
5 | 7.53 | 16.1 | 41 |  | 0.81 | 158000 |  | 78300 |  | 40000 |  | 1.24e+06 | 1.06e+06 | 776000 | 488000 |  |  |  |  | CLD389-279-IgG1 (antibody, V domains shown, Complete IgG1 made in HEK293 cells; also called C279; CLD389-C279) VH: EVQLVQSGGGVVQPGRSLRLSCAASGFTFSNYAMHWVRQAPGKGLEWVAVISYDGSNKYYADSVKGRFTISRDNSKNTLYLQMNSLRAEDTAVYYCARELRFFDWLLGRAFDIWGQGTMVTVSS VL: EIVMTQSPPSLSASVGDRVTITCRASQGIRNDLGWYQQKPGKAPKLLIYAASSLQSGVPSRFSGSGSGTDFTLTISSLQPEDFATYYCLQDYNYPWTFGQGTKLEIKR | 
